The values below come from patent US20210100916A1, “PREPARATION AND USE OF MITOCHONDRION-TARGETING SELF-ASSEMBLED PROTEIN NANOPARTICLE” (PEKING UNIVERSITY, priority 2018, published 2021).

The test system of data set [1] is U87MG cells. Nature of the data set: ROS content in cells (DCFH-DA probe, confocal imaging). The conditions noted are these: 6 μmo/L, 24 hours, 10 μmol/L DCFH-DA, FIGS. 6 and 7. The format is cell-based. As for the experimental part: Taking U87MG cell line as an example, 5×10^4 U87MG cells were added to a confocal dish and incubated overnight at 37° C. and 5% CO2; GSTP1-MT3(Fe^2+) and GSTP1-MT3(Co^2+) prepared in Example 3 were added to it (the final concentration was 6 μmo/L) and incubated again for 24 hours, and then washed with PBS for three times; then, 10 μmol/L DCFH-DA (ROS probe) was added, incubated at 37° C. for 30 minutes, and washed with PBS for three times; finally, confocal imaging was performed, and statistics was performed on the ROS content.

Data set [2] is described as follows: Body weight / toxicity during breast cancer treatment. The data set is classed as in vivo, Balb/c mice. The conditions noted are these: 100 μL of 30 pmol/L tail vein, 5 injections, vs PBS. As for the experimental part: Taking the breast cancer of Balb/c mice as an example, 3×10^6 4T1 (stable transfected Luciferase) breast cancer cells were inoculated into Balb/c mice; when the tumor grew to 50-70 mm^3, 100 μL of 30 pmol/L GSTP1-MT3(Co^2+) was injected through the tail vein as the experimental group, and 100μL of PBS was injected through the tail vein as the control group. The injection was performed once every two days, that is, the tail vein injection was performed on the 3rd, 5th, 7th, 9th and 11th day of the experiment, respectively. A total of 5 injections were given. The weights of the mice and the size of the tumor were recorded at different time points.

Regarding “GSTP1-MT3(Co^2+): Self-assembled protein nanoparticle of MT3-GGGGS-GSTP1 fusion protein (SEQ ID NO: 4) induced by Co^2+”, the “ROS content in cells” value in data set [1] is recorded as “significantly increase”. Also, in data set [2], the “body weights, experimental group vs control group” value is “not much different” and the “toxic or side effects on mice” value is on record as “no obvious toxic or side effects”.
